Source: US20110093983A1, “ALGAL GLYCEROL-3 PHOSPHATE ACYLTRANSFERASE” (National Research Council of Canada, priority 2008, published 2011)

System: yeast gat1 mutant
Test: Lipidomic analysis of phospholipids from yeast gat1 transformed with TpGPAT or GAT1, fed EPA or DHA
Format: cell-based, Saccharomyces cerevisiae
Details: tandem mass spectrometer lipidomics
Excerpt: FIG. 4 graphically depicts the results of the lipidomic analysis (fatty acid composition) of the lipids from yeast gat1 mutants transformed with either TpGPAT1 or GAT1. Yeast cells expressing TpGPAT or yeast GAT1 were fed with EPA (20:5) or DHA (22:6) upon induction of the genes. Total lipids from the yeast cells were extracted and subjected to lipidomic analysis using a tandem mass spectrometer. The results are presented as the molar ratio of EPA- or DHA-containing phospholipids (PC, PE, PS, PI) in the total phospholipids.
To further determine the role of TpGPAT in the incorporation of VLGPUFAs into glycerolipids, yeast gat1 strain transformed with TpGPAT or GAT1 under the control of the GAL1 promoter was grown in the presence of EPA (20:5) or DHA (22:6) upon induction of the genes. Phospholipids were extracted and subjected to lipidomic analysis using a tandem mass spectrometer (testing conducted by the Kansas Lipidomics Research Center). […] It was thus concluded that TpGPAT has a role in controlling PUFA accumulation in glycerolipid.

B1: GAT1: yeast (S. cerevisiae) glycerol-3-phosphate acyltransferase gene GAT1 expressed under GAL1 promoter as comparator (protein, listed as Saccharomyces cerevisiae)
chain: MSAPAADHNAAKPIPHVPQASRRYKNSYNGFVYNIHTWLYDVSVFLFNILFTIFFREIKVRGAYNVPEVGVPTILVCAPHANQFIDPALVMSQTRLLKTSAGKSRSRMPCFVTAESSFKKRFISFFGHAMGGIPVPRIQDNLKPVDENLEIYAPDLKNHPEIIKGRSKNPQTTPVNFTKRFSAKSLLGLPDYLSNAQIKEIPDDETIILSSPFRTSKSKVVELLTNGTNFKYAEKIDNTETFQSVFDHLHTKGCVGIFPEGGSHDRPSLLPIKAGVAIMALGAVAADPTMKVAVVPCGLHYFHRNKFRSRAVLEYGEPIVVDGKYGEMYKDSPRETVSKLLKKITNSLFSVTENAPDYDTLMVIQAARRLYQPVKVRLPLPAIVEINRRLLFGYSKFKDDPRIIHLKKLVYDYNRKLDSVGLKDHQVMQLKTTKLEALRCFVTLIVRLIKFSVFAILSLPGSILFTPIFIICRVYSEKKAKEGLKKSLVKIKGTDLLATWKLIVALILAPILYVTYSILLIILARKQHYCRIWVPSNNAFIQFVYFYALLVFTTYSSLKTGEIGVDLFKSLRPLFVSIVYPGKKIEEIQTTRKNLSLELTAVCNDLGPLVFPDYDKLATEIFSKRDGYDVSSDAESSISRMSVQSRSRSSSIHSIGSLASNALSRVNSRGSLTDIPIFSDAKQGQWKSEGETSEDEDEFDEKNPAIVQTARSSDLNKENSRNTNISSKIASLVRQKREHEKKE
B1 was tested, and the “Molar percentage of DHA in phospholipids” value (yeast gat1 fed DHA (22:6)) was 0.235% and the “Molar percentage of EPA in phospholipids” value (yeast gat1 fed EPA (20:5)) was 2.025%.
